Test results published in patent publication US5246838A, “Processing of proteins” (priority 1990, dated 1993).

How the values were obtained:
[1] = target: pre(A13i)-β-lactamase (B. subtilis; E. coli) (UniProt P62593)
[2] = test system: E. coli cells containing pSPB plasmids (beta-lactamase with the indicated signal peptide); experiment: Ampicillin resistance in E. coli carrying pSPB plasmids (colony formation); type: cell-based
From the text: described in Materials and Methods. Resistance to ampicillin was defined
as the maximal concentration of the antibiotic at which 100% of the E.
coli cells could form colonies. Plasmids indicated by pSPA . . . contain
amylase with the indicated signal peptide, plasmids indicated by pSPB . .
. contain lactamase with the indicated signal peptide.

[3] = target: truncated pre-β-lactamase (E.coli) (UniProt P62593)
[4] = target: wild-type TEM pre-β-lactamase (E.coli) (UniProt P62593)
[5] = target: pre(A13i)-β-lactamase (B. subtilis; E. coli) (UniProt P62593); settings: scale: % of all the
[6] = target: pre(A2)-β-lactamase (E. coli) (UniProt P62593)
[7] = target: pre(A2d)-β-lactamase (E. coli) (UniProt P62593)
[8] = target: pre(A42)-β-lactamase (E. coli) (UniProt P62593)

For B. subtilis SPase I (enzyme), the t50, time necessary to obtain equal amounts of the precursor and the mature forms, pulse-chase labeling in B. subtilis DB104 [1] was 6 min.
In the case of `CC1(C)S[C@@H]2[C@H](NC(=O)[C@H](N)c3ccccc3)C(=O)N2[C@H]1C(=O)O` [ampicillin], the “E. coli amp. resist. (maximal concentration of the antibiotic at which 100% of the E. coli cells could form colonies)” value ([2]; E. coli containing pSPB-A2) is reported as 300 µg/mL, the “E. coli amp. resist. (maximal concentration of the antibiotic at which 100% of the E. coli cells could form colonies)” value ([2]; E. coli containing pSPB-A13) is reported as 300 µg/mL and the “E. coli amp. resist. (maximal concentration of the antibiotic at which 100% of the E. coli cells could form colonies)” value ([2]; E. coli containing pSPB-A13i) is reported as 100 µg/mL. For the same molecule, the “E. coli amp. resist. (maximal concentration of the antibiotic at which 100% of the E. coli cells could form colonies)” value ([2]; E. coli containing pSPB-A42) was 20 µg/mL, the “E. coli amp. resist. (maximal concentration of the antibiotic at which 100% of the E. coli cells could form colonies)” value ([2]; E. coli containing pSPB-A2d) was 500 µg/mL and the “E. coli amp. resist. (maximal concentration of the antibiotic at which 100% of the E. coli cells could form colonies)” value ([2]; E. coli containing pSPB-A42d) was 100 µg/mL.
“E.coli SPase I (signal peptidase I) (from UniProt P00803) (enzyme)” was tested, and the fraction unprocessed truncated (P') lactamase, pulse-chase labeling, samples 15 s after the chase [3] was 63%, the fraction unprocessed wildtype (P) lactamase, pulse-chase labeling, samples 15 s after the chase [4] was 15% and the relative amount of mature enzyme, pulse-chase labeling in E.coli C600 [5] was 6 to 7. For the same molecule, the t50, time necessary to process 50% of the precursor, pulse-chase labeling in E.coli C600 [6] was 2.2 min, the t50, time necessary to process 50% of the precursor, pulse-chase labeling in E.coli C600 [7] was < 1 min and the t50, time necessary to process 50% of the precursor, pulse-chase labeling in E.coli C600 [8] was 15 min.
S.typhimurium SPase I (enzyme) showed a fraction unprocessed truncated (P') lactamase, pulse-chase labeling, samples 15 s after the chase [3] of 60% and a fraction unprocessed wildtype (P) lactamase, pulse-chase labeling, samples 15 s after the chase [4] of 16%.
